Common to all, as to assay: EMSA
What all share (settings): EMSA: 10 mM Tris-HCl, 10 mM NaCl, 40 mM KCl, 1 mM MgCl2, 4 mM EDTA, 1 mM DTT, 0.5 mg/ml BSA, 5% glycerol, 2 pmol DNA in 15 ul, room temperature 15 min (pH not …)

Data set [1] concerns IntI1 (IntI1Y312F), MBP fusion.
Another data set concerns IntI1A.
Another data set relates to IntI1deltaC.

In the case of “CATTGCGCATTGCGTAGATCTTTTATGTCTAACAATTCATTCAAGCCGACGCCGCTTCGCGGCGCGGCTTAATTCAAGCGTTAGACATTTTCCATGGCTATATTTCAGCATCATCACATCATCATCATCATCATCACAGGGTAGATCATCATCATCAACACGGGACGACAGCAAATGGCACCCTTCTATAAGCTTTTTATGTCTAACAATTCATTCAAGCCGACGCCGCTTCGCGGCGCGGCTTAATTCAAGCGTTAGACATTTTCTCGAGGGTATAGCATTCTAG / CCCTGTGATGATGATGATGATGATGTGATGATGCTGAAATATAGCCATGGACGCAGATCTACGCAATGCGCAATG / CTAGAATGCTATACCCTCGAGCGCAAGCTTATAGAAGGGTGCCATTTGCTGTCGTCCCGTGTTGATGATGATGATC [double-attCaadA7ts + staples]”, the binding signal in data set [1] turned out to be 7 % bound. Regarding “CATTGCGCATTGCGTAGATCTTTTATGTCTAACGCTTGAATTAAGCCGCGCCGCGAAGCGGCGTCGGCTTGAATGAATTGTTAGACATTTTCCATGGCTATATTTCAGCATCATCACATCATCATCATCATCATCACAGGGTAGATCATCATCATCAACACGGGACGACAGCAAATGGCACCCTTCTATAAGCTTTTTATGTCTAACGCTTGAATTAAGCCGCGCCGCGAAGCGGCGTCGGCTTGAATGAATTGTTAGACATTTTCTCGAGGGTATAGCATTCTAG / CCCTGTGATGATGATGATGATGATGTGATGATGCTGAAATATAGCCATGGACGCAGATCTACGCAATGCGCAATG / CTAGAATGCTATACCCTCGAGCGCAAGCTTATAGAAGGGTGCCATTTGCTGTCGTCCCGTGTTGATGATGATGATC [double-attCaadA7bs + staples]”, the K half in the data set on IntI1A amounted to 100 nM; in the data set with IntI1deltaC, 180 nM; in data set [1], 153 nM. As to “CATTGCGCATTGCGTAGATCTTTTGAGTAACCGTTTTGAGTCGAACCCAACGATCCGTTGGTGTTCGAGCTCATCTGTGTTACTCTTTCCATGGCTATATTTCAGCATCATCACATCATCATCATCATCATCACAGGGTAGATCATCATCATCAACACGGGACGACAGCAAATGGCACCCTTCTATAAGCTTTTTGAGTAACCGTTTTGAGTCGAACCCAACGATCCGTTGGTGTTCGAGCTCATCTGTGTTACTCTTTCTCGAGGGTATAGCATTCTAG / CCCTGTGATGATGATGATGATGATGTGATGATGCTGAAATATAGCCATGGACGCAGATCTACGCAATGCGCAATG / CTAGAATGCTATACCCTCGAGCGCAAGCTTATAGAAGGGTGCCATTTGCTGTCGTCCCGTGTTGATGATGATGATC [double-attCL2 + staples]”, the K half in data set [1] came to 357 nM. Same read-out and setting: next, “CATTGCGCATTGCGTAGATCTTTTGTTATAACGCCCGCCTAAGGGGCTGACAACGCACTACCACTAAACTCAAACACAACAACAGCAACCACCGCGGCTCAATGGGACTGGAAACGCCACGCGTTGACAGTCCCTCTTGAGGCGTTTGTTATAACTTTCCATGGCTATATTTCAGCATCATCACATCATCATCATCATCATCACAGGGTAGATCATCATCATCAACACGGGACGACAGCAAATGGCACCCTTCTATAAGCTTTTTGTTATAACGCCCGCCTAAGGGGCTGACAACGCACTACCACTAAACTCAAACACAACAACAGCAACCACCGCGGCTCAATGGGACTGGAAACGCCACGCGTTGACAGTCCCTCTTGAGGCGTTTGTTATAACTTTCTCGAGGGTATAGCATTCTAG / CCCTGTGATGATGATGATGATGATGTGATGATGCTGAAATATAGCCATGGACGCAGATCTACGCAATGCGCAATG / CTAGAATGCTATACCCTCGAGCGCAAGCTTATAGAAGGGTGCCATTTGCTGTCGTCCCGTGTTGATGATGATGATC [double-attCVCR2/1 + staples]”: 353 nM; “CATTGCGCATTGCGTAGATCTTTTGTTATAACTTTCGCCTAAGGGGCTGACAACGCACTACCACTAAACTCAAACACAACAACAGCAACCACCGCGGCTCAATGGGACTGGAAACGCCACGCGTTGACAGTCCCTCTTGAGGCGGCCGTTATAACTTTCCATGGCTATATTTCAGCATCATCACATCATCATCATCATCATCACAGGGTAGATCATCATCATCAACACGGGACGACAGCAAATGGCACCCTTCTATAAGCTTTTTGTTATAACTTTCGCCTAAGGGGCTGACAACGCACTACCACTAAACTCAAACACAACAACAGCAACCACCGCGGCTCAATGGGACTGGAAACGCCACGCGTTGACAGTCCCTCTTGAGGCGGCCGTTATAACTTTCTCGAGGGTATAGCATTCTAG / CCCTGTGATGATGATGATGATGATGTGATGATGCTGAAATATAGCCATGGACGCAGATCTACGCAATGCGCAATG / CTAGAATGCTATACCCTCGAGCGCAAGCTTATAGAAGGGTGCCATTTGCTGTCGTCCCGTGTTGATGATGATGATC [double-attCVCRinv + staples]”: 135 nM.

Values taken from PMC11641012.
